Results published in article PMC3005950.

Tests used:
[1] = molecular target: IL-7Ralpha ECD (Homo sapiens) (UniProt P16871); conditions: cited from earlier work
[2] = molecular target: IL-7 receptor alpha chain extracellular domain, glycosylated, IL-7Ralpha (CHO) (UniProt P16871); assay: SPR; conditions: pH 7.4, 298 K, 10 mM HEPES (pH 7.4)
[3] = molecular target: IL-7 receptor alpha chain extracellular domain, nonglycosylated, IL-7Ralpha (EC) (UniProt P16871); assay: SPR; conditions: pH 7.4, 298 K, 10 mM HEPES (pH 7.4)

| ΔG^o ([2]; 50 mM NaCl) [kJ/mol] | ΔG^o ([2]; 1 M NaCl) [kJ/mol] | ΔG^o ([3]; 50 mM NaCl) [kJ/mol] | k−1 ([3]; 300 mM NaCl) [s⁻¹] | ΔG^o ([3]; 300 mM NaCl) [kJ/mol] | Substance | Kd [1] [µM] |
| --- | --- | --- | --- | --- | --- | --- |
|  |  |  |  |  | IL-7 (from UniProt P13232) | 0.06 |
| -49.4 | -34.9 | -32.3 | 0.121 | -19.6 | Interleukin-7 (IL-7) |  |
